In this test the target is Drosophila melanogaster cystathionine β-synthase (Drosophila melanogaster). Description: native gel or EMSA.

Consider one substance from publication PMC3751582.

What is called stoichiometry N is the number of molecules, sites or subunits per partner or assembly.

For the substance “Drosophila melanogaster cystathionine β-synthase (enzyme)”, the stoichiometry N came to 2.
